Measurements reported in patent US20240034786A1 (WUXI BIOLOGICS IRELAND, published 2024).
Substitutions are numbered along the chain they refer to. Names may count otherwise.

B1: W3195-1.53.1-uIgG1L (antibody)
heavy: not shown
light: SYELTQPPSVSVSPGQTANITCSGDKLGDKFASWYQQKSGQSPVVVIYQDNKRPSGFPERFSGSNSGNTATLTISGTQAMDEADYYCQAWDSSIVVFGGGTKLTVLGQPKAAPSVTLFPPSSEELQANKATLVCLISDFYPGAVTVAWKADSSPVKAGVETTTPSKQSNNKYAASSYLSLTPEQWKSHRSYSCQVTHEGSTVEKTVAPTECS
notes: Fully human IgG1 from an OmniRat hybridoma, converted to human IgG1; also called parental antibody; parental mAb
B2: W3195-1.53.1-p3-uIgG1L (antibody)
heavy: not shown
light: B1 light with T21A
notes: also called W3195-p3 antibody
B3: W3195-1.53.1-p7-uIgG1LV320 (antibody, V domains shown)
VH: QVQLQESGPGLVKPSETLSLTCTVSGGSVISDNYYWTWVRQPPGKGLEFIGYIYYRGSTNYNPSLKNRVIISIDTSRNQFSLDLNSVTAADTAVYYCARDRRTGSSLPFDNWGQGTLVTVSS
VL: SYELTQPPSVSVSPGQTAQITCSGDKLGDKFASWYQQKSGQSPVVVIYQDNKRPSGFPERFSGSNSGNTATLTISGTQAMDEADYYCQAWDSSIVVFGGGTKLTVLG
notes: also called W3195-1.53.1-p7-uIgG1V320; W3195-p7-V320 antibody
B4: W3195-1.53.1-p6-uIgG1LV320 (antibody, V domains shown)
VH: B3 VH with S105T
VL: B3 VL
notes: also called W3195-1.53.1-p6-uIgG1V320; W3195-p6-V320 antibody
B5: W3195-1.53.1-p4-uIgG1LV320 (antibody, V domains shown)
VH: B3 VH with S105N, S106A
VL: B3 VL
notes: V320 = IgG1 Fc with L234A/L235A; also called W3195-1.53.1-p4-uIgG1V320; W3195-p4-V320 antibody
B6: W3195-1.53.1-p5-uIgG1LV320 (antibody, V domains shown)
VH: B3 VH with S105Q
VL: B3 VL
notes: also called W3195-1.53.1-p5-uIgG1V320; W3195-p5-V320 antibody

The binders below were run against T1, Human P-cadherin on cells (human, UniProt P22223 108-829) (assay: FACS on DU-145 cells).
T1 construct: whole, on cells; Endogenous P-cadherin on tumour cell lines; also called hPro1
T1 sequence (P22223 108-829): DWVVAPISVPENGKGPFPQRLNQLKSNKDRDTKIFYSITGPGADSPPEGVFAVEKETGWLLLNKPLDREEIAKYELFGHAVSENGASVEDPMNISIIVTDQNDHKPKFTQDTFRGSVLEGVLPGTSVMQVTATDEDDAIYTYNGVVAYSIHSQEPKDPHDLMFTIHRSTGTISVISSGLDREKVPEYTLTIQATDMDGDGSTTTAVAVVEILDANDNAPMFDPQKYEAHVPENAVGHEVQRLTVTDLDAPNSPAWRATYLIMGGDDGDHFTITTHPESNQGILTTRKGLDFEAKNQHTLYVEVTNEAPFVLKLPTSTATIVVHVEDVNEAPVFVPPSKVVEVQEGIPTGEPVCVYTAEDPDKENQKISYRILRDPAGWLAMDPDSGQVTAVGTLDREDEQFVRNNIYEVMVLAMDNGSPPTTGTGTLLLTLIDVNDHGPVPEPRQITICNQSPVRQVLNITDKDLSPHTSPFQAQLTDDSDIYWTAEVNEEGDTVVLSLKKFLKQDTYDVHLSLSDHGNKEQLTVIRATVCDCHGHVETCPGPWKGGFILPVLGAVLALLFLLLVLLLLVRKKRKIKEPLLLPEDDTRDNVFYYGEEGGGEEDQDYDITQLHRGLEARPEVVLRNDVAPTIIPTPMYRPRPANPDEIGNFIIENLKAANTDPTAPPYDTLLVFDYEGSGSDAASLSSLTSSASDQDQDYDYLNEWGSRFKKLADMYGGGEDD
Method: (§1) Binding of the test antibodies to P-cadherin expressed on cells was determined by flow cytometry analysis. […] 1×10⁵ cells/well (100 μL) were added to each well of a 96-well U-plate (Corning, #3799) and centrifuged at 1500 rpm (Eppendorf, #5810R) for 5 minutes before removing the supernatant. Antibodies serially diluted in 1% BSA/1×PBS (Ca+/Mg+) were added at 100 μL/well to the pelleted cells and incubated at 4° C. for 1 hour. Anon-related hIgG1 antibody was used as an isotype control. Cells were washed two times with 180 μL/well of 1% BSA/1×PBS (Ca+/Mg+) by centrifugation at 1500 rpm for 5 minutes at 4° C. Pelleted cells were resuspended in 100 μL/well Alexa647 conjugated Goat anti-human IgG Fc (Jackson, #109-605-098) 1:500 diluted in 1% BSA/1×PBS (Ca+/Mg+) for 30 minutes at 4° C. in the dark. Cells were then washed two times as described above. After the final wash, cells were resuspended in 100 μL 1% BSA/1×PBS (Ca+/Mg+) and fluorescence values were measured with a FACS Canto II cytometer (BD Biosciences). The amount of cell surface bound anti-P-cadherin antibody was assessed by measuring the mean fluorescence (MFI). The FACS raw data were analyzed by FlowJo software, wells containing no antibody or secondary antibody only were used to establish background fluorescence. Binding EC50 values were obtained by the four-parameter non-linear regression analysis using GraphPad Prism6 software.
For B1, the EC50 was 0.05 nM and the “Max MFI” value was 2090. With B2 the EC50 was 0.05 nM and the “Max MFI” value was 2140.

Biological target: T1, Human P-cadherin on cells
Experiment: FACS on DU-145 cells
Remark: another data set of the same source
Method: as §1
For B3, the EC50 was 0.09 nM and the “Max MFI” value was 2280. B4 was tested, and the EC50 was 0.1 nM and the “Max MFI” value was 2290. B5 was tested, and the EC50 was 0.12 nM and the “Max MFI” value was 2160. For B6, the EC50 was 0.12 nM and the “Max MFI” value was 2240.

These binders were tested against T1, Human P-cadherin on cells (assay: FACS on HCT-116 cells).
Method: as §1
Binding of the antibodies to human P-cadherin expressed on cells was determined by flow cytometry analysis.
B3 was tested, and the EC50 was 0.14 nM and the “Max MFI” value was 4230. For B4, the EC50 was 0.14 nM and the “Max MFI” value was 4180. For B5, the EC50 was 0.14 nM and the “Max MFI” value was 4190. For B6, the EC50 was 0.17 nM and the “Max MFI” value was 4170.

What follows are binders tested against T1, Human P-cadherin on cells (assay: cell-based or functional assay).
B2 was tested, and the “internalization, Fab-ZAP CTG assay on HCC-1954, IC50” value was 0.02 nM.

Biological target: T1, Human P-cadherin on cells
Experiment: cell-based or functional assay
Remark: another data set of the same source
In the case of B3, the “internalization, Fab-ZAP on HCC-1954, IC50” value is reported as 0.059 nM and the “internalization, Fab-ZAP on HCC-1954, Max Inh %” value (“internalization … Max Inh %” for short) is reported as 79%. For B4, the “internalization, Fab-ZAP on HCC-1954, IC50” value was 0.063 nM and the “internalization … Max Inh %” value was 79%. In the case of B5, the “internalization, Fab-ZAP on HCC-1954, IC50” value is reported as 0.063 nM and the “internalization … Max Inh %” value is reported as 80%. With B6 the “internalization, Fab-ZAP on HCC-1954, IC50” value was 0.058 nM and the “internalization … Max Inh %” value was 82%.
